Key:
Gemin2 (full-length) = molecular target: T1, Gemin2 (full-length) (human, UniProt O14893 1-280); assay: crystal structure; Complexes A, B and C; hanging-drop vapor diffusion at 20°C, 1-6% PEG8000, 100 mM Tris-HCl pH 7.5-8.2; solved by molecular replacement with PDB 3S6N; details: both partners purified
T1 construct: Gemin2, human, full length; source: coexpressed with SMN_(Ge2BD) (pCDF-HT-Gemin2); not shown: His6, N-terminal, cleaved
T1 sequence (looked up): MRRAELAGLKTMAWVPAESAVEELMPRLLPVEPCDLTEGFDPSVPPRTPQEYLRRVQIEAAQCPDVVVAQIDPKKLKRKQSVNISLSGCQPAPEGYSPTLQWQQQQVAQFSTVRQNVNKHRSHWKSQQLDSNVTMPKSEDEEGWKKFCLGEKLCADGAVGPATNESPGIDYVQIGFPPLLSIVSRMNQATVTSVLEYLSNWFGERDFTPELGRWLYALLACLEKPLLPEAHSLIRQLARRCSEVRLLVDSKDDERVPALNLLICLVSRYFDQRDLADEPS

Gemin2ΔN39 = molecular target: T2, Gemin2ΔN39 (human, UniProt O14893 40-280); assay: as above; details: both partners purified
T2 construct: Gemin2, human, N-terminal 39 residues deleted (residues 40-280 left); also called Gemin2 residues 40–280; source: coexpressed with SMN_(Ge2BD) (pCDF-HT-Gemin2ΔN39); not shown: His6, N-terminal, cleaved
T2 sequence (looked up): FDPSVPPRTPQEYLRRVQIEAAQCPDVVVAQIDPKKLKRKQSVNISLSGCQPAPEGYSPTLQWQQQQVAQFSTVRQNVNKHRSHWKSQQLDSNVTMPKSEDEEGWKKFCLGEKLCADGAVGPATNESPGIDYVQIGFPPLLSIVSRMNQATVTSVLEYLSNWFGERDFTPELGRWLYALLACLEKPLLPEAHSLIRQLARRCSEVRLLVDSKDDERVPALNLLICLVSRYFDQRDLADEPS

binding result (Gemin2 (full-length)): binds
binding result (Gemin2ΔN39): binds
B1: SMN_(Ge2BD), SMN residues 26–62 (domain or fragment, human, UniProt Q16637 26-62, looked up)
chain: GQSDDSDIWDDTALIKAYDKAVASFKHALKNGDICET
notes: also called SMN(26-62); SMN (26–62) peptide; source: coexpressed with Gemin2 or Gemin2ΔN39 (pET21-HMT-SMN_(Ge2BD)); not shown: His6, N-terminal, cleaved; MBP, N-terminal, cleaved
